Laboratory results as given in the supplement of paper PMC10567573.

B1: CLCN6 (parent)
chain: FQSISLRKIQFNFPYFRSDRDKRD

Variants of: B1
Test: protein stability index of a GFP-peptide fusion (GPS, HEK-293T) (PSI 1-6); higher = more stable
Conditions: c terminus: a fixed tail appended
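Further: lentivirally expressed fusions sorted by FACS into six bins by GFP to DsRed ratio, PSI derived from sequencing read proportions per bin multiplied by bin number.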

Variant | protein stability index
FQSISLRKIQFNFPYFRSDEDKRD | 2.73
FQSISLRKIQFNFPYFRSDMDKRD | 1.72
FQSISLRKIQFNFPYFRSDSDKRD | 2.2
FQSISLRKIQFNFPYFRSDKDKRD | 1.43
FQSISLRKIQFNFPYFRSDHDKRD | 1.72
FQSISLRKIQFNFPYFRSDTDKRD | 1.25
FQSISLRKIQFNFPYFRSDWDKRD | 3.61
FQSISLRKIQFNFPYFRSDADKRD | 2.17
FQSISLRKIQFNFPYFRSDVDKRD | 1.73
FQSISLRKIQFNFPYFRSDQDKRD | 3.07
FQSISLRKIQFNFPYFRSDNDKRD | 1.72
FQSISLRKIQFNFPYFRSDPDKRD | 1.45
FQSISLRKIQFNFPYFRSDCDKRD | 1.23
FQSISLRKIQFNFPYFRSDLDKRD | 1.22
FQSISLRKILFNFPYFRSDRDKRD | 1.67
FQSISLRKIKFNFPYFRSDRDKRD | 1.67
FQSISLRKIIFNFPYFRSDRDKRD | 2.33
FQSISLRKIAFNFPYFRSDRDKRD | 1.56
FQSISLRKIVFNFPYFRSDRDKRD | 2.31
FQSISLRKIYFNFPYFRSDRDKRD | 1
FQSISLRKINFNFPYFRSDRDKRD | 1.95
FQSISLRKIHFNFPYFRSDRDKRD | 1.51
FQSISLRKIFFNFPYFRSDRDKRD | 1.52
FQSISLRKICFNFPYFRSDRDKRD | 2.6

Variant | protein stability index
FQSISLRKIPFNFPYFRSDRDKRD | 1.74
FQSISLRKIDFNFPYFRSDRDKRD | 2.04
FQSISLRKISFNFPYFRSDRDKRD | 1.98
FQSISLRKIQFNFCYFRSDRDKRD | 1.82
FQSISLRKIQFNFGYFRSDRDKRD | 1.69
FQSISLRKIQFNFFYFRSDRDKRD | 1.69
FQSISLRKIQFNFLYFRSDRDKRD | 1.24
FQSISLRKIQFNFIYFRSDRDKRD | 1.43
FQSISLRKIQFNFEYFRSDRDKRD | 1.99
FQSISLRKIQFNFQYFRSDRDKRD | 2.5
FQSISLRKIQFNFNYFRSDRDKRD | 1.81
FQSISLRKIQFNFHYFRSDRDKRD | 1.67
FQSISLRKIQFNFPYFRSQRDKRD | 1.85
FQSISLRKIQFNFPYFRSSRDKRD | 1.33
FQSISLRKIQFNFPYFRSIRDKRD | 2
FQSISLRKIQFNFPYFRSRRDKRD | 1.9
FQSISLRKIQFNFPYFRSMRDKRD | 2.01
FQSISLRKIQFNFPYFRSPRDKRD | 2.16
FQSISLRKIQFNFPYFRSLRDKRD | 1.47
FQSISLRKIQFNFPYFRSTRDKRD | 2.21
FQSISLRKIQFNFPYFRSFRDKRD | 1.68
FQSISLRKIQFNFPYFRSARDKRD | 1.67
FQSISLRKIQFNFPYFRSKRDKRD | 1.46
FQSISLRKIQFNFPYFRSDRDQRD | 1.68

Variant | protein stability index
FQSISLRKIQFNFPYFRSDRDHRD | 1.34
FQSISLRKIQFNFPYFRSDRDIRD | 1.81
FQSISLRKIQFNFPYFRSDRDPRD | 1.66
FQSISLRKIQFNFPYFRSDRDMRD | 1.82
FQSISLRKIQFNFPYFRSDRDLRD | 1.71
FQSISLRKIQFNFPYFRSDRDRRD | 1.35
FQSISLRKIQFNFPYFRSDRDARD | 1.29
FQSISLRKIQFNFPYFRSDRDDRD | 1.92
FQSISLRKIQFNFPYFRSDRDCRD | 3.83
FQSISLRKIQFNFPYFRSDRDTRD | 2.17
FQSISLRKIQFNFPYFRSDRDWRD | 2.09
FQSISLRKIQFNFPYFRSDRDYRD | 2.27
FQSISLRKIQFNFPYFRSDRDSRD | 2.72
FQSISLRKIQLNFPYFRSDRDKRD | 2.54
FQSISLRKIQHNFPYFRSDRDKRD | 1.74
FQSISLRKIQGNFPYFRSDRDKRD | 1.41
FQSISLRKIQPNFPYFRSDRDKRD | 1.28
FQSISLRKIQMNFPYFRSDRDKRD | 1.65
FQSISLRKIQYNFPYFRSDRDKRD | 1.61
FQSISLRKIQKNFPYFRSDRDKRD | 2.79
FQSISLRKIQRNFPYFRSDRDKRD | 1.51
FQSISLRKIQCNFPYFRSDRDKRD | 1.96
FQSISLRKIQENFPYFRSDRDKRD | 2.02
FQSISLRKIQSNFPYFRSDRDKRD | 1.56

Variant | protein stability index
FQSISLRKIQQNFPYFRSDRDKRD | 1.25
FQSISLRKIQFNFPYFFSDRDKRD | 1.52
FQSISLRKIQFNFPYFTSDRDKRD | 1.71
FQSISLRKIQFNFPYFMSDRDKRD | 1.93
FQSISLRKIQFNFPYFDSDRDKRD | 3.03
FQSISLRKIQFNFPYFGSDRDKRD | 1.71
FQSISLRKIQFNFPYFHSDRDKRD | 2.35
FQSISLRKIQFNFPYFQSDRDKRD | 2.02
FQSISLRKIQFNFPYFNSDRDKRD | 2.21
FQSISLRKIQFNFPYFKSDRDKRD | 1.76
FQSISLRKIQFNFPYFESDRDKRD | 2.26
FQSISLRKIQFNFPYFYSDRDKRD | 1.22
FQSISLRKIQFNFPYFCSDRDKRD | 1.11
FQSISLRKIQFNFPYFSSDRDKRD | 1.5
FQSISLRKIQFNFPYFISDRDKRD | 1.56
FQSISLRKIQFNFPYFPSDRDKRD | 2.28
FQSISLRKIQFNFPYFVSDRDKRD | 2.15
FQSISLRKNQFNFPYFRSDRDKRD | 1.47
FQSISLRKRQFNFPYFRSDRDKRD | 2.02
FQSISLRKWQFNFPYFRSDRDKRD | 1.78
FQSISLRKLQFNFPYFRSDRDKRD | 1.62
FQSISLRKQQFNFPYFRSDRDKRD | 2.81
